We go through one molecule from patent publication US20220017637A1 (Hoffmann-La Roche, published 2022).

Experiment [1] addresses T1, human CD28 on CHO cells (parental cell line CHO-k1 ATCC #CCL-61, modified to stably overexpress human CD28) (human, UniProt P10747 19-220).
T1 construct: The whole entry (with signal peptide) is named; also called CHOk1-huCD28; CHOk1 huCD28
The experiment in a line: flow cytometry (MFI PE) on CHOk1-huCD28 cells; R-PE F(ab')2 goat anti-human IgG Fcgamma secondary. A general note: A flow cytometer gives signals particle by particle.

Experiment [2] concerns the target T2, Her2 expressed on the cell surface of the human breast cancer cell line KPL-4 (human, UniProt P04626 23-1255).
T2 construct: endogenous Her2 of KPL-4 cells stood in the assay; also called ErbB2; human epidermal growth factor receptor-2
The experiment in a line: flow cytometry (MFI PE); panel title on the sheet: Binding to human Her2, KPL4; R-PE F(ab')2 goat anti-human IgG Fcgamma secondary.

For experiment [3], the target named is T2, Her2 expressed on the cell surface of …. The experiment in a line: flow cytometry (MFI PE) on KPL-4 cells; R-PE F(ab')2 goat anti-human IgG Fcgamma secondary.

B1: Molecule A: Her2 (pertuzumab CLC_WT)-CD28 (SA_Variant 8) 1+1 format (bispecific antibody, human IgG1, kappa, L234A L235A)
heavy 1: not shown
light 1: QVQLVQSGAEVKKPGASVKVSCKASGYTFTSYYIHWVRQAPGQGLEWIGSIYPGNVQTNYNEKFKDRATLTVDTSISTAYMELSRLRSDDTAVYFCTRSHYGLDFNFDVWGQGTTVTVSSASVAAPSVFIFPPSDEQLKSGTASVVCLLNNFYPREAKVQWKVDNALQSGNSQESVTEQDSKDSTYSLSSTLTLSKADYEKHKVYACEVTHQGLSSPVTKSFNRGEC
heavy 2: not shown
light 2: DIQMTQSPSSLSASVGDRVTITCKASQDVSTAVAWYQQKPGKAPKLLIYSASFRYTGVPSRFSGSRSGTDFTLTISSLQPEDFATYYCQQHYTTPPTFGQGTKVEIKRTVAAPSVFIFPPSDRKLKSGTASVVCLLNNFYPREAKVQWKVDNALQSGNSQESVTEQDSKDSTYSLSSTLTLSKADYEKHKVYACEVTHQGLSSPVTKSFNRGEC
notes: only the Fc knob chain carries PG-LALA; also called P1AF6741; Her2-CD28 (P1AF6741)
For orientation: EC50 (read off the curve) means the concentration at which the effect is half-maximal. With B1, the binding result in experiment [1] is “binds”. The results for the “EC50 (read off the curve)” value in experiment [2] and in experiment [3] were roughly 3 nM and 6 to 7 nM, respectively.
